Experiments:
[1] = substrate: OC[C@H]1O[C@@H](Oc2ccc(O)cc2)[C@H](O)[C@@H](O)[C@@H]1O; experiment: HPLC of glucose or aglycone, Michaelis-Menten fit; assay type: biochemical, Lacticaseibacillus paracasei; conditions: pH 5.5, 30°C, 0.5-15 mM substrate
Source text: (§1) HPLC of glucose or aglycone, Michaelis-Menten fit on LpBgla

[2] = substrate: OC[C@H]1O[C@@H](Oc2cc(O)cc(/C=C/c3ccc(O)cc3)c2)[C@H](O)[C@@H](O)[C@@H]1O; experiment: HPLC of glucose or aglycone, Michaelis-Menten fit; assay type: biochemical, Lacticaseibacillus paracasei; conditions: pH 5.5, 30°C, 0.5-15 mM substrate
Source text: as §1

[3] = substrate: OCc1ccccc1O[C@@H]1O[C@H](CO)[C@@H](O)[C@H](O)[C@H]1O; experiment: HPLC of glucose or aglycone, Michaelis-Menten fit; assay type: biochemical, Lacticaseibacillus paracasei; conditions: pH 5.5, 30°C, 0.5-15 mM substrate
Source text: as §1

[4] = substrate: COC(=O)C1=CO[C@@H](O[C@@H]2O[C@H](CO)[C@@H](O)[C@H](O)[C@H]2O)[C@@H]2C(CO)=CC[C@H]12; experiment: HPLC of glucose or aglycone, Michaelis-Menten fit; assay type: biochemical, Lacticaseibacillus paracasei; conditions: pH 5.5, 30°C, 0.5-15 mM substrate
Source text: as §1

[5] = substrate: O=c1ccc2cc(O[C@@H]3O[C@H](CO)[C@@H](O)[C@H](O)[C@H]3O)c(O)cc2o1; experiment: HPLC of glucose or aglycone, Michaelis-Menten fit; assay type: biochemical, Lacticaseibacillus paracasei; conditions: pH 5.5, 30°C, 0.5-15 mM substrate
Source text: as §1

purified protein = substrate: O=[N+]([O-])c1ccc(O[C@@H]2O[C@H](CO)[C@@H](O)[C@H](O)[C@H]2O)cc1; experiment: purified protein; conditions: pH 5.5, 30°C, 0.5-15 mM substrate, authors note sigmoidal v0 vs [S]

B1: LpBgla (Lacticaseibacillus paracasei ATCC 334) (protein)
chain: MGVVVSNFHLAKITAEEKVKLTSGKDFWTSEHLADKGIPSFRMSDGPHGLRYQALAADHLGINDSVPSTSFPTASASAAAWDPDLIQAMGKAIGLEAQSLGVDMVLGPGVNMKRNPLCGRNFEYFSEDPFLAGKLGAAWINGIQSQGIAACLKHFAANNQENDRLSSDSLVDPTALHEIYLEAFRIAVTESHPEAVMCSYNKINGTYASDNLYLMTQVLRQQFGFGGAVITDWGALNDKVAALNAGTDLEMPGDDHLFDGEALQAYQQGTLKLASLDRAVTKIAEIARKQRPKFQGSREQLLQANGQLAQKIAESAIVLLKNEAALLPLQATDTVAVIGELAKATRFQGAGSSHINASEIVSVLDGLKQKKVSFDYAAGYRLDDQDDSQATAEALALARNHDKVVFVAGLPDNYESEGFDRQNMALPKVQNDLLQAVTAVNPNVIVLLVAGAPVELPWVDQVKAVVNLSLGGERIGAAAANVLTGAVNPSGKLAESYPLKYQDVPSADVYDKKPRSVPYVESTYIGYRYYDKAKVPVAFPFGFGLSYTSFALKNIQLSSDHVTDDQPLTISLQVTNTGQVDGAEVVQVYVQEQQPRPLRPEKSLKAFKKVFVKAGQTVNVALELKAQAFKEWREQTQTWVLPEAQKAIAVGTSVTNIDAVLPVSFTGETFNNFATIPNWYTTLSGKPSVQDFEQLTDQKVPAPHEFVPGEFTRLNTPREMKKHSLLLRLVAWITVKIRTKDYIDKQGPEAKFQQAIVLDTPLIRLAQQASGALKLSMVDRLVAAANHQYVKMIFR
notes: full-length gene (2,388 bp, 796 amino acids), pET28a, His-tagged, E. coli BL21(DE3), Ni-NTA; monomer
Km [1]: 1920 ± 30 µM | kcat [1]: 3570 ± 72 s⁻¹ | kcat/Km [1]: 1.86e+06 M⁻¹ s⁻¹ | Km [2]: 5710 ± 100 µM | kcat [2]: 1730 ± 45 s⁻¹ | kcat/Km [2]: 303000 M⁻¹ s⁻¹ | Km [3]: 2250 ± 10 µM | kcat [3]: 2970 ± 88 s⁻¹ | kcat/Km [3]: 1.32e+06 M⁻¹ s⁻¹ | Km [4]: 2870 ± 50 µM | kcat [4]: 2520 ± 23 s⁻¹ | kcat/Km [4]: 878000 M⁻¹ s⁻¹ | Km [5]: 3610 ± 80 µM | kcat [5]: 2210 ± 38 s⁻¹ | kcat/Km [5]: 611000 M⁻¹ s⁻¹ | Km (purified protein): 1440 ± 80 µM | kcat (purified protein): 3982 ± 14 s⁻¹ | kcat/Km (purified protein): 2.76e+06 M⁻¹ s⁻¹
